Biological target: F-ATPase from Paracoccus denitrificans (nine core subunits α, β, γ, δ, ε, a, b, b' and c) (Paracoccus denitrificans (strain PD1222)) (UniProt A1B8N8)
Assay: reverse-phase LC-MS of the subunits of the purified complex; subunits of F-ATPase I fractionated by reverse-phase chromatography, online electrospray MS; amounts estimated from peak areas of the ion traces, ζ against the δ-subunit

Sequence of UniProt A1B8N8 (A1B8N8 whole entry, looked up, stated change not applied, tested part not stated): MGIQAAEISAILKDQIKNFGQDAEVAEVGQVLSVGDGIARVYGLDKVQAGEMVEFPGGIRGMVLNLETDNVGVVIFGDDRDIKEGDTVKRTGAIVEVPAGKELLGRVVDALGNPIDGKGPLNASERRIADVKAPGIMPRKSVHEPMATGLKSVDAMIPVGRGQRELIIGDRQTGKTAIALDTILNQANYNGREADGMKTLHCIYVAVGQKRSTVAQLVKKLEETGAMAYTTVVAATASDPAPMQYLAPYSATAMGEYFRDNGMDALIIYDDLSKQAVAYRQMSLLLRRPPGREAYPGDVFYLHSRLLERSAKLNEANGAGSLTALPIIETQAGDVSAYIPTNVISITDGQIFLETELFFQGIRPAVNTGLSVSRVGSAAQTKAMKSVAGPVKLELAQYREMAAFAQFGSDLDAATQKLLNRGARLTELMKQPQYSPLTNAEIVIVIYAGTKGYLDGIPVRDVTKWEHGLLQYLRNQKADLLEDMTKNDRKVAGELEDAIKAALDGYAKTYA

stoichiometry N (ζ-protein per F-ATPase complex): 1
Substance: ζ inhibitor protein of the F-ATPase from Paracoccus denitrificans (natural protein)

Reference: article PMC4593670
